The text below walks through data of publication PMC12446635.

For assay [1], the target named is human plasma glycoproteins. The assay can be described thus: far-Western, overlay or dot blot; human or rat plasma diluted 1:10, boiled with LDS sample buffer and 50 mM DTT, separated on 3 to 8% polyacrylamide gradient gels, transferred to BioTraceNT; GST-SLBR 5 nM in DPBS with 1x Blocking Reagent, 90 min, room temperature; detected with anti-GST; in duplicate.
For assay [2], the target named is human plasma glycoproteins. Kind of assay: far-Western blot densitometry (ImageJ). The settings on record: human plasma; parent: est. 4.0; read off a plot.
The target of the next assay is rat plasma glycoproteins. The assay can be described thus: far-Western blot densitometry (ImageJ). The following applies: rat plasma; parent: est. 13; read off a plot.
Assay [3] deals with biotinylated Neu5Acα2-3Gal disaccharide. Kind of assay: ELISA. The following applies: 500 nM immobilized GST-SLBR, read off a plot. On the technique in general: In an ELISA, binding on a coated surface is turned into a signal by an enzyme label.
Assay [4] deals with biotinylated Neu5Gcα2-3Gal disaccharide. Kind of assay: ELISA. The settings on record: 500 nM immobilized GST-SLBR, read off a plot.
The mark [5] stands for this setting: 1 μg/ml biotinylated disaccharide, parent: est. 0.16.
Where [6] appears, read: highest ligand concentration point, about 5 μg/ml biotinylated disaccharide, parent: est. 0.31.
Setting [7] is: 1 μg/ml biotinylated disaccharide, parent: est. 0.18.
Where [8] appears, read: highest ligand concentration point, about 5 μg/ml biotinylated disaccharide, parent: est. 0.41.

As for “GST-tagged SLBRHsa V370F (domain or fragment)”, the fold decrease in total binding against wild-type SLBRHsa in assay [1] turned out to be 3 fold.
On to “GST-tagged SLBR_(SrpA) (Siglec-like binding region of the serine-rich repeat adhesin SrpA, Streptococcus sanguinis strain SK36), wild type (from UniProt A3CM52) Y368F”, for which the response (Signal Intensity (x1000)) in assay [2] stood at 0.2; in the assay with rat plasma glycoproteins it was 15. The response in assay [3] (setting [5]) was 0.26 A450; in assay [3] (setting [6]), 0.54 A450; in assay [4] (setting [7]) it was 0.62 A450; in assay [4] (setting [8]), 0.99 A450.
Turning to “GST-tagged SLBR_(SrpA) (Siglec-like binding region of the serine-rich repeat adhesin SrpA, Streptococcus sanguinis strain SK36), wild type (from UniProt A3CM52) Y368I”, the response (Signal Intensity (x1000)) in assay [2] was 0; with rat plasma glycoproteins, 19. In addition, the response in assay [3] (setting [5]) was 0.16 A450; in assay [3] (setting [6]), 0.32 A450; in assay [4] (setting [7]), 0.81 A450; in assay [4] (setting [8]), 1.1 A450.
With “GST-tagged SLBR_(SrpA) (Siglec-like binding region of the serine-rich repeat adhesin SrpA, Streptococcus sanguinis strain SK36), wild type (from UniProt A3CM52) Y368V”, the response (Signal Intensity (x1000)) is 0 in assay [2] and 18 with rat plasma glycoproteins. Also, the response in assay [3] (setting [5]) is 0.12 A450; in assay [3] (setting [6]), 0.21 A450; in assay [4] (setting [7]), 0.62 A450; in assay [4] (setting [8]) it was 0.98 A450.
